Reference: the supplement of paper PMC12042874
± gives the uncertainty stated by the source.

Assay: amyloid nucleation score (Sup35N fusion, yeast selection) (log enrichment); library NNK1; higher = more nucleation; inactive = no reads after selection
Summary of the method: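 Nucleation score: DiMSum log enrichment of output over input reads, centred on the mode score of non-aggregating sequences. Only sequences with at least 100 input reads were kept. Reads came from Illumina sequencing of plasmid inserts before and after 7 days of growth at 30°C without adenine and uracil, in psi-negative yeast expressing Sup35N fused to peptides of 20 random codons after 24 hours of induction with 100 μM copper sulfate.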

| Substance | amyloid nucleation score |
| --- | --- |
| SMAGEFWSVLFFCESIWGGD | 4.83 ± 0.12 |
| HNLDCKRVGSARTWIEWWVG | 0.07 ± 0.3 |
| FYFRHSVLMCKHLFQFDYKE | 0.668 ± 0.45 |
| VYLKKSLFL | -0.484 ± 0.9 |
| YAFWFLCGYALP | 2.92 ± 0.12 |
| IALASCVCLSACWTLDVNSM | 0.989 ± 0.31 |
| RVEFHGIR | 1.62 ± 0.32 |
| LTYSPWGCWIYMCYGERFWR | 7.883 ± 0.062 |
| IHGNDPMLTVGSSMYV | 0.323 ± 0.41 |
| AAWDLVVGQ | -0.473 ± 0.32 |
| RTNSWAESHRSHCVCATSCG | -0.743 ± 0.6 |
| HQELMSFFLLCLH | inactive |
| CTGSVWYAPLWMWWEWLR | 0.498 ± 0.69 |
| VGWSMWNMIRMMVVPVAGPG | 0.253 ± 0.35 |
| PLVGGRNCGKDFPSLTDTPV | -0.06 ± 0.27 |
| LDNLWYL | 0.623 ± 0.88 |
| FLVWIMGSFPTGRGANRRNS | -0.465 ± 0.51 |
| SACALSYYCGWISRCSYLCP | -0.158 ± 0.63 |
| TISGLFLSRLYSKTMGGC | 1.89 ± 0.62 |
| IHVLADIYCVWGGLKEFWTS | 0.374 ± 0.65 |
| FKCKSDAPWPWLHSL | 1.37 ± 0.45 |
| SKCLMNS | -1.26 ± 1.7 |
| VGHYGRETHLCSWCQIANGA | inactive |
| QTLDRNNARSSDNGCSVGGA | -0.476 ± 1.9 |
| MGDSISVFMKSRFCVCTWGG | inactive |

| Substance | amyloid nucleation score |
| --- | --- |
| PRCNSFNSYCFA | 0.224 ± 0.29 |
| LNHSAIRHTVSGLNPWSWAG | -0.288 ± 1.5 |
| SHCYSLGMLKVWLGQIKTFG | 1.8 ± 0.27 |
| VMFYSLHFCGVEDFFTGAER | 0.834 ± 0.57 |
| HIYSRYQERRLVFVWYACND | 0.134 ± 0.38 |
| EYLFCCVCADLFNTWDKSLG | 7.29 ± 0.052 |
| YGDDRWYIRSIIEDCQLGGF | -0.716 ± 0.5 |
| TQSTLGSMTIASDYCTTE | 1.42 ± 0.34 |
| DLVTSYWKIEGPILRSGGNM | -0.563 ± 0.49 |
| DKYTARDVSKRT | 1.56 ± 0.59 |
| VKVIKLRHSLGTFFCSAQLQ | inactive |
| CYIYPVFLGFMYCREEGNMG | 1.93 ± 0.37 |
| KLPIAGCYRVINCTVRGE | -0.008 ± 0.26 |
| KLQLVSLWQ | 2.77 ± 0.11 |
| QKRRKLARLASRYFPS | 0.325 ± 0.57 |
| LSTDQLVSSLKCR | 0.404 ± 0.41 |
| VSVFLGSGHRRARGW | -0.482 ± 0.47 |
| WFVNWWEYVL | 0.042 ± 0.9 |
| CRFMSVICHTLFWTPLTFYY | 0.592 ± 0.83 |
| RPGWSHRITENLPFVEKVGP | -0.502 ± 0.7 |
| VAIRTKPLYLDEYIFMDHMP | 0.459 ± 0.68 |
| EIMKCFNFTHMVEMKSMKRN | 2.62 ± 0.087 |
| IGCSCGLHT | inactive |
| WGDLHRMVMISREVEPVSNI | -0.361 ± 0.78 |
| SVVRNESNSLVH | 0.065 ± 0.28 |

| Substance | amyloid nucleation score |
| --- | --- |
| RAGTFTVSTQGPS | 0.268 ± 0.28 |
| GDIRGQMCMWYLW | -1.73 ± 2.7 |
| VSRNFVTKDSQLNGLSN | -1.52 ± 1.4 |
| GVISAGYFAGYETKLLLKGD | 0.983 ± 0.97 |
| SGKLLISCVYSLENMC | 1.39 ± 0.72 |
| IGTSFVYNYFDHFLK | 5.59 ± 0.062 |
| FRSFLLPR | 0.644 ± 0.54 |
| SRFNSWLCCEND | 1.76 ± 0.35 |
| LPCHWVHVQGHHWLRLDVMC | 0.2 ± 0.64 |
| RSIMWNLFHDF | 0.789 ± 0.51 |
| RVHQGLFDGNKAYQTGIHWN | 0.041 ± 0.25 |
| NSVISMAPYLFTCIENVKSK | 0.315 ± 0.42 |
| VFGSCWYLYFVYLPTNRFRM | -0.134 ± 0.3 |
| AVVWDTIYNKTKPLVRP | 0.57 ± 0.93 |
| TAMKILPAQRGCIYVWHNRR | inactive |
| IDSYITNKGSRSAKCHPDDS | -0.701 ± 1 |
| WLGVNDSLGFICEAVGWYGW | 0.604 ± 0.63 |
| LINFLLVTVCTSWIGISLCV | 0.358 ± 0.39 |
| GNICSTLAINVGLIFSKECV | inactive |
| YFTLFDSRKTVLRSENNTRW | 0.578 ± 0.32 |
| SNFGIIYM | inactive |
| QMIMAMNSFLISYLNHMWPG | 2.13 ± 0.1 |
| LILSSCHERGSGGVFWTDHV | 0.924 ± 0.64 |
| FICERPGSRKTTLPTVTVIR | -0.499 ± 0.98 |
| TWLQPLNRTMNWMTSTAGFR | inactive |

| Substance | amyloid nucleation score |
| --- | --- |
| IDRSLETTTVRGLVVRCYNG | 0.369 ± 0.35 |
| SLVMKVPLFECVCIGMCGRA | 0.448 ± 0.52 |
| PHPPAPKK | 0.067 ± 0.59 |
| KTCWTILSVLLTLK | 0.489 ± 0.58 |
| LSSYGYHMRVDHVTNANPSR | 0.159 ± 0.43 |
| VFYVFWYFRLCI | 0.035 ± 0.2 |
| WFTAFARK | 3.41 ± 0.11 |
| VNVITGWCAQELVVRAILEI | 0.341 ± 0.4 |
| RGSKVFSSDALVSRLARRVG | -0.462 ± 0.5 |
| SWSRRDVYKEGLDGGMGEGA | -1.07 ± 1.3 |
| TTALFWSRRPSFGDLYRGFN | 3.86 ± 0.082 |
| AFQESRGQSNWYIYMLVHTS | 1.11 ± 0.54 |
| TVRFHYQGFTVS | -0.236 ± 0.61 |
| LHLERALLTNRLFRS | 0.077 ± 0.49 |
| VTTYLG | -0.499 ± 0.74 |
| CVSFMVTFTIMRQLYNCKCR | 3.91 ± 0.077 |
| ALILTVIDHVSAHYYVAEDV | 5.59 ± 0.081 |
| MYCITDEVNRYKCCKTGKEF | 0.634 ± 0.32 |
| FGDGIDSNVSMVEN | inactive |
| SRVCYNRWLKLWDSDRPVIG | -0.001 ± 0.36 |
| IVNFRVNRPSL | 0.205 ± 0.31 |
| SLDRYIREHK | 0.635 ± 0.84 |
| QNVRSLVHSYLKGTNSSLVG | -0.01 ± 0.74 |
| GLYIFYLSNWLFHPRF | 0.339 ± 0.43 |
| VLSRSMH | -0.206 ± 1.7 |

| Substance | amyloid nucleation score |
| --- | --- |
| ELRSIDTWYPASGCML | -0.187 ± 0.29 |
| MLRFRCVRQP | 0.102 ± 0.35 |
| IVGSSQLSYLGLAFSYGVQV | -0.903 ± 1.7 |
| IFCYMNYGS | 0.554 ± 0.51 |
| YFPGVSRGQVDEPVYLCCQR | 0.068 ± 0.57 |
| WINKYYDLN | 0.472 ± 0.42 |
| VSRTCIQYCDDDDRSKSRSS | 0.253 ± 0.23 |
| YMLSDLITCLCVAEELFRGQ | 4.81 ± 0.098 |
| GQTVNCNATYFSVTIVGIVG | 2.8 ± 0.13 |
| FMLSFDTTFPLKVLIRTSPE | -0.858 ± 0.85 |
| ARFMLAWEVNCQG | 1.39 ± 0.22 |
| SVAFWSVCRVLGTDADMDRI | -0.254 ± 0.58 |
| GVRMLGFVRV | 0.261 ± 0.2 |
| CANFVFCCMGE | 7.396 ± 0.072 |
| GKLSDINCLYSSDSLGCLGL | 0.815 ± 0.9 |
| YFAVWSSRDTFRFYLILINP | -0.427 ± 0.33 |
| SWFIL | 0.428 ± 0.85 |
| QRSNRGLPYKSRDGI | 0.153 ± 0.39 |
| LDGTAYVDFVVCLEGGTDVI | -0.18 ± 0.37 |
| FDSVESRTAPTRMILLRTLF | inactive |
| FASVDTRETSSGMGGISKTG | -0.742 ± 0.56 |
| NHSGSFKCGRIVSRYDD | -1.37 ± 0.95 |
| FWNLVF | 1.36 ± 0.64 |
| RLCRYLKYRYG | 0.839 ± 1.1 |
| NIISEN | inactive |

| Substance | amyloid nucleation score |
| --- | --- |
| MGNHCLTR | 1.12 ± 0.58 |
| VLSAGVCFMTRVRSVFDGVH | 2.14 ± 0.24 |
| TWIKILSGPLYKFCI | -0.2 ± 0.56 |
| PMHSLTASYNDSHFRNRGVM | inactive |
| FLPLMIASVSWRL | 0.455 ± 0.64 |
| SCLKSDVYVCCEDLRRLDCV | -0.453 ± 0.38 |
| GQDSGSSNVFSSCICNLHVF | 7.715 ± 0.046 |
| WAVGVRSQLWVARQAKVMGG | 0.741 ± 0.69 |
| IGSFGNRYRVPMRTASGYNM | 0.623 ± 1 |
| MISFCSSWKLEQYEWWRRNL | 1.35 ± 0.32 |
| LAPALRTETQICRRIHSVQL | 1.62 ± 0.26 |
| YLCRLDLTTDRKSTGLLCGC | 0.022 ± 0.34 |
| SAVINFLRSQKLLNCGMGVT | -0.529 ± 1.7 |
| IVFNIYLILAKWWVTVTYSD | -1.25 ± 0.5 |
| TYYAAMRDGFVYHTKGLMAS | -0.209 ± 1 |
| SWNFTLLD | inactive |
| GNYSIARGLKNDKWCFFSSY | -0.234 ± 1.6 |
| LSPGRYFDSPL | 0.589 ± 0.77 |
| VNPYMMLAQY | 0.748 ± 0.38 |
| HTVPILRSAVPDSDARAKSQ | 0.493 ± 0.4 |
| FTISGLYSFFVSLLGKEYYG | -0.074 ± 0.43 |
| KAVYVVNGLFVHCVTR | 0.267 ± 0.21 |
| MVNWEARQ | 0.862 ± 0.64 |
| ASFSLDYSFQMPYILRWFIR | 1.03 ± 0.33 |
| TPLKEHLLNVVRMLGKIDCD | 0.177 ± 0.42 |

| Substance | amyloid nucleation score |
| --- | --- |
| DVYVWGGCLVSIKVLWMAWG | 0.117 ± 0.94 |
| FVNFWN | 0.473 ± 0.53 |
| RNCEEGFWRSEQPDHTYKLA | -0.955 ± 0.62 |
| PGSKAWFGSLISCLTPWVLR | -0.563 ± 0.85 |
| RNLWGCMIWGMRG | 1.83 ± 0.36 |
| RSLKMINNYISKLHVLMGFH | -0.281 ± 0.76 |
| NRPHTTYFFSFKSQF | 5.61 ± 0.063 |
| FDNLIVYVTVYFFLTYAPFV | 1.41 ± 0.26 |
| DYAGWPYLPSMHQATLQDAR | 0.275 ± 1.2 |
| YLCQRHSFTRSRYHFLLRPV | -1.02 ± 1.2 |
| SPFASVEEFELL | 0.124 ± 0.33 |
| INVIPDLD | -0.572 ± 0.5 |
| MTIQVTIGNYLGLVYFFPLS | 1.05 ± 0.97 |
| LRRLTTVAGIVIAVTSEDDT | 0.595 ± 0.73 |
| RIEHISQRQCMTFSIVTVVN | -0.49 ± 1.1 |
| LSMRWYTSPFAFGIS | -0.114 ± 0.88 |
| GTCYGCLLILVCSLFGSTTG | 1.12 ± 0.66 |
| FLWIA | -0.012 ± 0.56 |
| WHELRMCIVMDFLLMLQKMI | 1.79 ± 0.44 |
| SRATVSFVSLGNLTFGTILC | 1.72 ± 0.36 |
| GFPSRSIHFKLYLAANMQ | 1.07 ± 0.53 |
| RCSLPLWFQYYGAMTVHGTV | 0.61 ± 0.35 |
